Results as given in publication PMC2094072.

Assays:
Assay in all cases: fluorescence anisotropy
BLM642-1290 R979A = BLM642-1290 R979A (UniProt P54132 642-1290, R979A)
BLM642-1290 R959A = BLM642-1290 R959A (UniProt P54132 642-1290, R959A)
BLM642-1290 Q975V = BLM642-1290 Q975V (UniProt P54132 642-1290, Q975V)
BLM642-1290 H798A = BLM642-1290 H798A (UniProt P54132 642-1290, H798A)
BLM642-1290 R979/982A = BLM642-1290 R979/982A (UniProt P54132 642-1290, R979A;R982A)
BLM642-1290 = BLM642-1290 (UniProt P54132 642-1290)
BLM642-1290 R982A = BLM642-1290 R982A (UniProt P54132 642-1290, R982A)
BLM642-1290 R982A, sequence (P54132 642-1290 R982A): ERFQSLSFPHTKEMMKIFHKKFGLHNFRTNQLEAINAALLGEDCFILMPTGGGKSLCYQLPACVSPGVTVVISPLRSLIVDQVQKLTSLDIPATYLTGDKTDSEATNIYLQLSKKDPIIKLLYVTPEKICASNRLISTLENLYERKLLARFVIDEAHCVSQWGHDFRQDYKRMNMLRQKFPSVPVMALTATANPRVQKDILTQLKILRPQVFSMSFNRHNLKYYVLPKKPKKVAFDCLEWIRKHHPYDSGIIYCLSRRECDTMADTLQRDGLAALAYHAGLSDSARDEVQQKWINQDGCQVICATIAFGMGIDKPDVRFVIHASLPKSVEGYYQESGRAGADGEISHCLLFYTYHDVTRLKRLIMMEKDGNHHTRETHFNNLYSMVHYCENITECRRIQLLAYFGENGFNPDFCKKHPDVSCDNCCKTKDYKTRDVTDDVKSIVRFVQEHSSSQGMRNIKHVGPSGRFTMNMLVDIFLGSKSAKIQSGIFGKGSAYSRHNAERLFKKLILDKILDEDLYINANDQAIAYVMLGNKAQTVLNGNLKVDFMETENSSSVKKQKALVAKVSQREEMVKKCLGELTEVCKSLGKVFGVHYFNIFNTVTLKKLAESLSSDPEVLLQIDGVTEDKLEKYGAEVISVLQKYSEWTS

BLM642-1290 R959A, sequence (P54132 642-1290 R959A): as the sequence (P54132 642-1290 R982A) above, with R318A, A341R counted along it
BLM642-1290 Q975V, sequence (P54132 642-1290 Q975V): as the sequence (P54132 642-1290 R982A) above, with Q334V, A341R counted along it
BLM642-1290 H798A, sequence (P54132 642-1290 H798A): as the sequence (P54132 642-1290 R982A) above, with H157A, A341R counted along it
BLM642-1290, sequence (P54132 642-1290): as the sequence (P54132 642-1290 R982A) above, with A341R counted along it
BLM642-1290 R979A, sequence (P54132 642-1290 R979A): as the sequence (P54132 642-1290 R982A) above, with R338A, A341R counted along it
BLM642-1290 R979/982A, sequence (P54132 642-1290 R979A/R982A): as the sequence (P54132 642-1290 R982A) above, with R338A counted along it

With GGGTTAGGGTTAGGGTTAGGG (ssDNA) [oligonucleotide D (21-mer)] the Kd (BLM642-1290 R979A) was 1.91 ± 0.46 nM, the Kd (BLM642-1290 R959A) was 4.15 ± 0.4 nM and the Kd (BLM642-1290 Q975V) was 3.31 ± 0.4 nM. The Kd (BLM642-1290 H798A) was 5.03 ± 0.55 nM, the Kd (BLM642-1290 R979/982A) was 1.32 ± 0.49 nM and the Kd (BLM642-1290) was 1.11 ± 0.11 nM. It also gave a Kd (BLM642-1290 R982A) of 2.13 ± 0.32 nM.
